In the supplement of paper PMC9233669:
This sample holds only a part of the variants without activity.

What was measured:
biotinyl-Ile-oxazolone = experiment: self-aminoacylation, catalytic enhancement (BIO) (fold over background); higher = more active; k-Seq, kA / k0A0; sequences stand for … in GGGAAUGGAUCCACAUCUACGAAUUC…UUCACUGCAGACUUGACGAAGCUG
Procedure, shortened: (§1)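 Working in 50 μL HEPES/NaCl/KCl/MgCl2/CaCl2 buffer with 5% acetonitrile at pH 6.9–7.0, mutagenized RNA pools (0.43 μM; 21-nt variable region) were reacted with 2–1250 μM of each biotinyl-aminoacyl-oxazolone for 90 minutes at room temperature. Streptavidin capture followed, with quantification by triplicate qPCR and Illumina sequencing. Catalytic enhancement is reported as median kA over the uncatalyzed rate, the low-activity peak of a bimodal Gaussian fit to the data.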

biotinyl-Leu-oxazolone = experiment: self-aminoacylation, catalytic enhancement (BLO) (fold over background); higher = more active; k-Seq, kA / k0A0; sequences stand for … in GGGAAUGGAUCCACAUCUACGAAUUC…UUCACUGCAGACUUGACGAAGCUG
Procedure, shortened: as §1

biotinyl-Trp-oxazolone = experiment: self-aminoacylation, catalytic enhancement (BWO) (fold over background); higher = more active; k-Seq, kA / k0A0; sequences stand for … in GGGAAUGGAUCCACAUCUACGAAUUC…UUCACUGCAGACUUGACGAAGCUG
Procedure, shortened: as §1

biotinyl-Val-oxazolone = experiment: self-aminoacylation, catalytic enhancement (BVO) (fold over background); higher = more active; k-Seq, kA / k0A0; sequences stand for … in GGGAAUGGAUCCACAUCUACGAAUUC…UUCACUGCAGACUUGACGAAGCUG
Procedure, shortened: as §1

biotinyl-Phe-oxazolone = experiment: self-aminoacylation, catalytic enhancement (BFO) (fold over background); higher = more active; k-Seq, kA / k0A0; sequences stand for … in GGGAAUGGAUCCACAUCUACGAAUUC…UUCACUGCAGACUUGACGAAGCUG
Procedure, shortened: as §1

biotinyl-Met-oxazolone = experiment: self-aminoacylation, catalytic enhancement (BMO) (fold over background); higher = more active; k-Seq, kA / k0A0; sequences stand for … in GGGAAUGGAUCCACAUCUACGAAUUC…UUCACUGCAGACUUGACGAAGCUG
Procedure, shortened: as §1

Sequence	self-aminoacylation (biotinyl-Ile-oxazolone)	self-aminoacylation (biotinyl-Leu-oxazolone)	self-aminoacylation (biotinyl-Trp-oxazolone)	self-aminoacylation (biotinyl-Val-oxazolone)	self-aminoacylation (biotinyl-Phe-oxazolone)	self-aminoacylation (biotinyl-Met-oxazolone)
AUUAUCCUGGUCAACGAGUGA [Fam2.1 aminoacylation ribozyme variant]	3.69	8.02	7.67	3.87	30.1	6.62
AUGACCCUGGUCAUCGUGUGA [Fam2.1 aminoacylation ribozyme variant]	1.4	2.88	2.61	1.5	17.4	2.76
AUUACACUGGUUAUCGAGUGA [Fam2.1 aminoacylation ribozyme variant]	4.23	8.73	10.3	3.72	45.5	7.64
AUUACCCCCGUCAUCGAGUGA [Fam2.1 aminoacylation ribozyme variant]	2.84	4.7	4.67	3.12	18.4	4.43
AUUACCCAGCUCAUCGAGUGA [Fam2.1 aminoacylation ribozyme variant]	1.47	1.52	1.32	1.56	1.01	1.54
CCACACUUCAAGGAAUCGGUU [Fam1B.1 aminoacylation ribozyme variant]	1.34	1.43	1.16	1.57	0.969	1.39
AUUCACUUAGGUCUUCGGGUG [Fam2.2 aminoacylation ribozyme variant]	2.96	3.95	4.2	2.71	22.7	3.58
AUUCACCUAGGUCGUCCGGUG [Fam2.2 aminoacylation ribozyme variant]	2.52	3.89	2.39	2.35	14.4	3.34
AAGUUUGAUAGUAGUCGCAAG [Fam3.1 aminoacylation ribozyme variant]	0.973	0.977	1.21	0.979	0.93	1.17
AUUCACCUAGGCCAUCGGGUA [Fam2.2 aminoacylation ribozyme variant]	2.42	3.81	3.52	2.21	16.4	3.31
ACUACCCUGGUCAUCAAGUGA [Fam2.1 aminoacylation ribozyme variant]	1.67	2.37	2.76	1.67	5.04	3.19
CUACUUCAAAAAAUCGUUCUG [Fam1A.1 aminoacylation ribozyme variant]	0.605	0.57	0.581	0.613	1.03	0.564
AUUCGCCUAGGUCAUCGAGUG [Fam2.2 aminoacylation ribozyme variant]	8.77	15.9	7.17	7.39	29.3	11.7
AUUCCCAUAGGUCAUCGGGUG [Fam2.2 aminoacylation ribozyme variant]	15.6	32.7	22	13.4	185	23.9
ACACACUUCAAGCAUUCGGUC [Fam1B.1 aminoacylation ribozyme variant]	1.81	1.8	2.13	1.87	1.5	1.68
AUUCACCUAGGUCAUCGGCUA [Fam2.2 aminoacylation ribozyme variant]	2.67	2.98	2.62	2.62	11.2	2.57
CUUCACCUACGUCAUCGGGUG [Fam2.2 aminoacylation ribozyme variant]	3.06	5.63	4.58	3.69	37.8	5.1
AUUCACCUGGGUCGUCGGGUG [Fam2.2 aminoacylation ribozyme variant]	1.93	2.3	2.11	2.48	6.66	2.46
UUUCACUUAGGUCAUCGGGUG [Fam2.2 aminoacylation ribozyme variant]	4.22	6.73	6.64	4.19	46.7	6.17
AUUAACCUGGUCACCGAGUGA [Fam2.1 aminoacylation ribozyme variant]	3.88	8.22	7.92	3.69	40.8	6.76
AUUCACCUCGGUCAACGGGUG [Fam2.2 aminoacylation ribozyme variant]	2.44	5.39	3.36	2.82	27.8	3.98
